Data from PMC11996676.

Target: aPKCι kinase domain (residues 248–596), fully primed (human), P41743
Experiment: fluorescence polarisation; fluorescence anisotropy; Llgl1 P-site peptide and aPKCι kinase domain (2P, pT412 and pT564); apparent Kd

aPKCι kinase domain (residues 248–596), fully primed (human), P41743, sequence (P41743 248-596): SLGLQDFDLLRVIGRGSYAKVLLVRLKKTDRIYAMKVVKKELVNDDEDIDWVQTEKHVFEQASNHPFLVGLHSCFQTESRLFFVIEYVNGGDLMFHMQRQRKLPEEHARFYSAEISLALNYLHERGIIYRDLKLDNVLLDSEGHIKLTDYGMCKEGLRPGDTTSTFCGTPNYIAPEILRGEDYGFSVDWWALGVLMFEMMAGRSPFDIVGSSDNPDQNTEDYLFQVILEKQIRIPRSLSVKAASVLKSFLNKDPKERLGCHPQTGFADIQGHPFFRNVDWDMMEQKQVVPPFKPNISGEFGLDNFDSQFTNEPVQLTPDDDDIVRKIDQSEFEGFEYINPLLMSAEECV

- Kd: 48 nM
Binder: LAMEGPLSRVKSLKKSLRQSFRRIRKSRV (modifications not checked) [Llgl1 P-site peptide]
